Where a chain is given by its changes, count along the chain named. Names may count otherwise.
T1: TNFR1 (Homo sapiens, UniProt P19438)
T1 chain: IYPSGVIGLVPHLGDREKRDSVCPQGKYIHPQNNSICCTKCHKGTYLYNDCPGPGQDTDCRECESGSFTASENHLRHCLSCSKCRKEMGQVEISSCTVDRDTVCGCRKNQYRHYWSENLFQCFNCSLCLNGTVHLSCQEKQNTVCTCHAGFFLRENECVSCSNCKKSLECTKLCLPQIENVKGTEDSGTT

B1: E10C (designed binder)
chain: MTLQELLRECALRRAEAEAFRYALELLAEKFPEQKEYLLDLAEEIESQIRSLSGVDVEDVRKFLDKEWAWVKELLAEHPAELAEVEAARAARLAELRAEVEAKVAA
B2: E29F (designed binder)
chain: B1 chain with C10E, E29F
B3: A15Q (designed binder)
chain: B1 chain with C10E, A15Q
B4: Q48M (designed binder)
chain: B1 chain with C10E, Q48M
B5: W68T (designed binder)
chain: B1 chain with C10E, W68T
B6: L26V (designed binder)
chain: B1 chain with C10E, L26V
B7: L52K (designed binder)
chain: B1 chain with C10E, L52K
B8: E81P (designed binder)
chain: B1 chain with C10E, E81P
B9: E5A (designed binder)
chain: B1 chain with E5A, C10E
B10: A98Q (designed binder)
chain: B1 chain with C10E, A98Q
B11: W70V (designed binder)
chain: B1 chain with C10E, W70V
B12: T2I (designed binder)
chain: B1 chain with T2I, C10E
B13: L93W (designed binder)
chain: B1 chain with C10E, L93W
B14: R13P (designed binder)
chain: B1 chain with C10E, R13P
B15: R61L (designed binder)
chain: B1 chain with C10E, R61L
B16: L26E (designed binder)
chain: B1 chain with C10E, L26E
B17: P32C (designed binder)
chain: B1 chain with C10E, P32C
B18: D59K (designed binder)
chain: B1 chain with C10E, D59K
B19: L93Q (designed binder)
chain: B1 chain with C10E, L93Q
B20: D59P (designed binder)
chain: B1 chain with C10E, D59P
B21: E18F (designed binder)
chain: B1 chain with C10E, E18F
B22: A19S (designed binder)
chain: B1 chain with C10E, A19S
B23: P32K (designed binder)
chain: B1 chain with C10E, P32K
B24: E73R (designed binder)
chain: B1 chain with C10E, E73R
B25: I49G (designed binder)
chain: B1 chain with C10E, I49G
B26: L12K (designed binder)
chain: B1 chain with C10E, L12K
B27: E73W (designed binder)
chain: B1 chain with C10E, E73W
B28: A11N (designed binder)
chain: B1 chain with C10E, A11N
B29: M1N (designed binder)
chain: B1 chain with M1N, C10E
B30: E9Q (designed binder)
chain: B1 chain with E9Q, C10E
B31: E101A (designed binder)
chain: B1 chain with C10E, E101A
B32: A102Q (designed binder)
chain: B1 chain with C10E, A102Q
B33: E33V (designed binder)
chain: B1 chain with C10E, E33V
B34: W68M (designed binder)
chain: B1 chain with C10E, W68M
B35: K72T (designed binder)
chain: B1 chain with C10E, K72T
B36: L41F (designed binder)
chain: B1 chain with C10E, L41F
B37: L24K (designed binder)
chain: B1 chain with C10E, L24K
B38: S47F (designed binder)
chain: B1 chain with C10E, S47F
B39: Q34R (designed binder)
chain: B1 chain with C10E, Q34R
B40: K35M (designed binder)
chain: B1 chain with C10E, K35M
B41: L7R (designed binder)
chain: B1 chain with L7R, C10E
B42: Q48P (designed binder)
chain: B1 chain with C10E, Q48P
B43: E44W (designed binder)
chain: B1 chain with C10E, E44W
B44: R14Y (designed binder)
chain: B1 chain with C10E, R14Y
B45: R21H (designed binder)
chain: B1 chain with C10E, R21H
B46: Q34N (designed binder)
chain: B1 chain with C10E, Q34N
B47: P32Y (designed binder)
chain: B1 chain with C10E, P32Y
B48: R8H (designed binder)
chain: B1 chain with R8H, C10E
B49: L64Y (designed binder)
chain: B1 chain with C10E, L64Y
B50: P79G (designed binder)
chain: B1 chain with C10E, P79G
B51: R21G (designed binder)
chain: B1 chain with C10E, R21G
B52: V85G (designed binder)
chain: B1 chain with C10E, V85G
B53: K72A (designed binder)
chain: B1 chain with C10E, K72A
B54: L93D (designed binder)
chain: B1 chain with C10E, L93D
B55: K30P (designed binder)
chain: B1 chain with C10E, K30P
B56: L12R (designed binder)
chain: B1 chain with C10E, L12R
B57: K62H (designed binder)
chain: B1 chain with C10E, K62H
B58: T2H (designed binder)
chain: B1 chain with T2H, C10E
B59: V85C (designed binder)
chain: B1 chain with C10E, V85C

Target: T1, TNFR1
Test: yeast display SC50

| apparent Kd (screen) [nM] | Binder |
| --- | --- |
| 16.7 | B1 |
| 0.653 | B2 |
| 0.718 | B3 |
| 1.16 | B4 |
| 1.54 | B5 |
| 0.79 | B6 |
| 1.05 | B7 |
| 0.718 | B8 |
| 0.79 | B9 |
| 0.653 | B10 |
| 20.2 | B11 |
| 0.653 | B12 |
| 0.539 | B13 |
| 11.4 | B14 |
| 0.539 | B15 |
| 0.79 | B16 |
| 0.539 | B17 |
| 0.869 | B18 |
| 0.539 | B19 |
| 0.252 | B20 |

| apparent Kd (screen) [nM] | Binder |
| --- | --- |
| 0.539 | B21 |
| 0.653 | B22 |
| 0.653 | B23 |
| 0.539 | B24 |
| 1.05 | B25 |
| 0.539 | B26 |
| 0.653 | B27 |
| 0.405 | B28 |
| 0.49 | B29 |
| 0.49 | B30 |
| 0.79 | B31 |
| 0.539 | B32 |
| 0.718 | B33 |
| 0.539 | B34 |
| 0.718 | B35 |
| 0.79 | B36 |
| 11.4 | B37 |
| 0.49 | B38 |
| 0.718 | B39 |
| 0.446 | B40 |

| apparent Kd (screen) [nM] | Binder |
| --- | --- |
| 8.56 | B41 |
| 3.99 | B42 |
| 0.539 | B43 |
| 0.49 | B44 |
| 0.49 | B45 |
| 0.539 | B46 |
| 0.539 | B47 |
| 0.869 | B48 |
| 0.49 | B49 |
| 0.956 | B50 |
| 0.869 | B51 |
| 0.718 | B52 |
| 0.869 | B53 |
| 0.869 | B54 |
| 0.653 | B55 |
| 0.49 | B56 |
| 0.718 | B57 |
| 0.869 | B58 |
| 0.446 | B59 |
